Among the data in article PMC3491106 (Biochemistry, 2012) are Kd values, retold here.

Numbering of substitutions follows the chain as printed.

Assay [1] deals with His6-EhFormin1 fusion (GBD-FH3 domain tandem, 40-residue linker, FH2-DAD fragment) (E. histolytica). The assay can be described thus: SPR. (In general: In SPR one partner is held on a chip, and binding of the other changes the refractive index at the surface.)
For assay [2], the target named is T1, His6-EhFormin1 GBD-FH3 domain tandem (a.a. 69-418) (E. histolytica, UniProt C4M622 69-418).
T1 sequence (looked up): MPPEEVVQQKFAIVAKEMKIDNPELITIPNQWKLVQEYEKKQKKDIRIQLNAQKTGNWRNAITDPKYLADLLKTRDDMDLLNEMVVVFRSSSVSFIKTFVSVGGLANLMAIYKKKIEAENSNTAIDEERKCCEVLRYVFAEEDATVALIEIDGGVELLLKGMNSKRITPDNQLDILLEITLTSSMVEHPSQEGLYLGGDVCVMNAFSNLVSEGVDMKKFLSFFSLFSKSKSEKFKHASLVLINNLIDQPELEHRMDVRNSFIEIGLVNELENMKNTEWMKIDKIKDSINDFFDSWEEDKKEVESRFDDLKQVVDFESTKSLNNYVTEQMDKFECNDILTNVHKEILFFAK
Description: SPR.

B1: EhRho1·GTPγS (Entamoeba histolytica Rho1, wild type, loaded with GTPγS) (natural protein, E. histolytica)
chain: MLAFSDMNTGAGKIENGKKALKIVVVGDGAVGKTCLLLAFSKGEIPTAYVPTVFENFSHVMKYKNEEFILHLWDTAGQEEYDRLRPLSYADSDVVLLCFAVNNRTSFDNISTKWEPEIKHYIDTAKTVLVGLKVDLRKDGSDDVTKQEGDDLCQKLGCVAYIEASSVAKIGLNEVFEKSVDCIFSNKPVPK
By Kd is commonly meant the concentration at which binding is half-saturated. Read a low Kd as a tighter complex. Turning to B1, the Kd in assay [1] is 3000 nM; in assay [2], roughly 3000 nM.

B2: EhRho1 Arg83 to Gln mutant (natural protein)
chain: B1 chain with R83Q
The molecule B2 came in with a Kd in assay [2] greater than 100000 nM.
